Measured values: patent publication US20190330321A1 (UCB, published 2019)
Numbering of substitutions follows the chain as printed.

Assays:
Experiment in all cases: cell-based or functional assay
[1] = biological target: endogenously produced TGF-beta (isoform not given)
[2] = biological target: T1, mature human TGF-beta 2 (human, UniProt P61812 303-414)
T1 sequence: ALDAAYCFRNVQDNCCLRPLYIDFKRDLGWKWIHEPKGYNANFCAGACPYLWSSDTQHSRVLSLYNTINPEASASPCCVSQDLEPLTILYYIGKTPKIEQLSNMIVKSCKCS

[3] = biological target: mature human TGF-beta 1 (human, UniProt P01137 279-390)
Sequence of mature human TGF-beta 1 (P01137 279-390 limits assumed): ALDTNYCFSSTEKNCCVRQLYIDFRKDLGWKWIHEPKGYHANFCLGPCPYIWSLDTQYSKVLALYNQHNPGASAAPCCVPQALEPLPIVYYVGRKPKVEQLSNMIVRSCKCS

[4] = biological target: T2, mature human TGF-beta 3 (human, UniProt P10600 301-412)
T2 sequence: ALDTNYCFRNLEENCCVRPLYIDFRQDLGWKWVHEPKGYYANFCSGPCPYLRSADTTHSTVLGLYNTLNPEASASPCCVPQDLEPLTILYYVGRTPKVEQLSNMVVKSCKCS

B1: 4856 rabbit Fab (Fab)
heavy: QSLEESGGRLVTPGTPLTLTCTASGFSLSSYDMSWVRQAPGKGLEWIGIIYGGSGSTWYASWAKGRFTMSKTSTTVDLKITSPTTEDMATYFCARGRDGGAGGSRNGYSLWGQGTLVTVSSGQPKAPSVFPLAPCCGDTPSSTVTLGCLVKGYLPEPVTVTWNSGTLTNGVRTFPSVRQSSGLYSLSSVVSVTSSSQPVTCNVAHPATNTKVDKTV
light: AYDMTQTPASVEVAVGGTVTIKCQASESIYSGLAWYQQTPGQRPKLLIYAASDLASGVPSRFKGSGSGTEYTLTISGVECADAATYYCQQTWTDGGIDNPFGGGTEVVVKRTPVAPTVLIFPPAADQVATGTVTIVCVANKYFPDVTVTWEVDGTTQTTGIENSKTPQNSADCTYNLSSTLTLTSTQYNSHKEYTCKVTQGTTSVVQSFNRGDC
Question: Which Geomean IC50, BxPC3-HEK-Blue TGF-beta reporter gene co-culture assay [1] does the source give for B1 here?
Answer: 3.7 nM

B2: 4856 rabbit Fab (Fab, V domains shown)
VH: QSLEESGGRLVTPGTPLTLTCTASGFSLSSYDMSWVRQAPGKGLEWIGIIYGGSGSTWYASWAKGRFTMSKTSTTVDLKITSPTTEDMATYFCARGRDGGAGGSRNGYSLWGQGTLVTVSS
VL: AYDMTQTPASVEVAVGGTVTIKCQASESIYSGLAWYQQTPGQRPKLLIYAASDLASGVPSRFKGSGSGTEYTLTISGVECADAATYYCQQTWTDGGIDNPFGGGTEVVVKR
Question: Which results are given for B2?
Answer: Geomean IC50, HEK-Blue TGF-beta reporter gene assay [2]: 0.3 not clear (head says nM); Geomean IC50, HEK-Blue TGF-beta reporter gene assay [3]: 1.77 not clear (head says nM); Geomean IC50, HEK-Blue TGF-beta reporter gene assay [4]: 24.5 not clear (head says nM)

B3: antibody 4856 gL3gH13 Fab (humanised) (Fab)
heavy: EVQLVESGGGLVKPGGSLRLSCAASGFSLSSYDMSWVRQAPGKGLEWIGIIYGGSGSTWYASWAKGRFTISRDSAKNSVYLQMNSLRAEDTAVYYCARGRDAGAGGSRNGYSLWGQGTLVTVSSASTKGPSVFPLAPSSKSTSGGTAALGCLVKDYFPEPVTVSWNSGALTSGVHTFPAVLQSSGLYSLSSVVTVPSSSLGTQTYICNVNHKPSNTKVDKKVEPKSC
light: AYDMTQSPSTLSASVGDRVTITCQASESIYSGLAWYQQKPGKAPKLLIYAASDLASGVPSRFSGSGSGTEYTLTISSLQPDDFATYYCQQTWTDGGIDNPFGGGTKVEIKRTVAAPSVFIFPPSDEQLKSGTASVVCLLNNFYPREAKVQWKVDNALQSGNSQESVTEQDSKDSTYSLSSTLTLSKADYEKHKVYACEVTHQGLSSPVTKSFNRGEC
Question: What does the source list for B3?
Answer: IC50, Collagen I&III deposition, RPTEC and HRF co-culture, N = 1 [1]: 22.4 nM; IC50, Collagen I&III deposition, RPTEC and HRF co-culture, N = 2 [1]: 48 nM; IC50, Collagen V deposition, RPTEC and HRF co-culture, N = 1 [1]: 38.9 nM; IC50, Collagen V deposition, RPTEC and HRF co-culture, N = 2 [1]: 81.6 nM; IC50, Fibronectin deposition, RPTEC and HRF co-culture, N = 1 [1]: 32.6 nM; IC50, Fibronectin deposition, RPTEC and HRF co-culture, N = 2 [1]: 27.1 nM; IC50 Geo Mean, Collagen I&III deposition, RPTEC and HRF co-culture [1]: 32.8 nM; IC50 Geo Mean, Collagen V deposition, RPTEC and HRF co-culture [1]: 56.3 nM; IC50 Geo Mean, Fibronectin deposition, RPTEC and HRF co-culture [1]: 29.7 nM; IC50 geometric mean, BxPC3 and HEK-Blue TGF-beta co-culture assay [1]: 3.95 nM

B4: antibody 4856 gL3gH23 Fab (humanised) (Fab)
heavy: B3 heavy with G110A
light: B3 light
Question: With B4 as the binder, how does the IC50 geometric mean, BxPC3 and HEK-Blue TGF-beta co-culture assay [1] read?
Answer: 9.1 nM

B5: antibody 4856 gL3gH29 Fab (humanised) (Fab)
heavy: B3 heavy with N109D
light: B3 light
Question: B5 was tested. Which IC50 geometric mean, BxPC3 and HEK-Blue TGF-beta co-culture assay [1] did it give?
Answer: 3.77 nM

B6: antibody 4856 gL3gH20 Fab (humanised) (Fab)
heavy: B3 heavy with G49S, I70M, R72K
light: B3 light
Question: With B6 as the binder, how does the IC50 geometric mean, BxPC3 and HEK-Blue TGF-beta co-culture assay [1] read?
Answer: 4.63 nM
